The numbers were not newly measured in PMC5753338, which cites them from elsewhere.

The series has as its target BAIAP2L1/IRTKS SH3 (Homo sapiens) (UniProt Q9UHR4).
Chain of UniProt Q9UHR4 (Q9UHR4 336-405): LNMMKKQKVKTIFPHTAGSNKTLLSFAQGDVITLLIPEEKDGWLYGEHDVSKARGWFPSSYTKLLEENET

On to EspFU PxxP motifs (from UniProt P0DJ88), for which the Kd – broadly, the constant that tells how readily two partners part at equilibrium – is 500 nM.
